Laboratory results reported in patent JP2023032631A (dated 2023).

B1: 抗SARS-CoV-2 RBD VHH抗体 A15 (VHH, not shown: small tags and cut ends)
VHH: QVQLVESGGALVQPGGSLRLSCAASGFPVNRNTMHWYRQAPGKEREGVAGISSRGDWTYYEDSVKGRFTISRDDARNTVYLQMSSLKPEDTAVYYCAAVGVLSVSAFGWLYWGQGTQVTVGG
notes: also called A15
B2: 抗SARS-CoV-2 RBD VHH抗体 B13 (VHH, not shown: small tags and cut ends)
VHH: QVQLVESGGALVQPGGSLRLSCAASGFPVNHHTMLWFRQAPGKEREGVAGISFRGNWTYYEDSVKGRFTISRDDARNTVYLQMNSLKPEDTAVYYCAAHLWLLGGVYWGQGTQVTVGG
notes: also called B13
B3: 抗SARS-CoV-2 RBD VHH抗体 B04 (VHH, not shown: small tags and cut ends)
VHH: QVQLVESGGALVQPGGSLRLSCAASGFPVNRNTMHWFRQAPGKEREGVAGISSRGDWTYYEDSVKGRFTISRDDARNTVYLQMNSLKPEDTAVYYCAALLWHYGGVYWGQGTQVTAGG
notes: also called B04
B4: 抗SARS-CoV-2 RBD VHH抗体 B16 (VHH, not shown: small tags and cut ends)
VHH: QVQLVESGGALVQPGGSLRLSCAASGFPVNHNAVHWFRQAPGKEREGVAGISHLVHRTYYEDSVKGRFTISRDDARNTVYLQMNSLKPEDTAVYYCAAYLWLLGGVYWGQGTQVTVGG
notes: also called B16
B5: 抗SARS-CoV-2 RBD VHH抗体 B02 (VHH, not shown: small tags and cut ends)
VHH: QVQLVESGGALVQPGGSLRLSCAASGFPVNRNTMHWFRQAPGKEREGVAGISSRGDWTYYEDSVKGRFTISRDDARNTVYLQMNSLKPEDTAVYYCAALLWNYGGVCWGQGTQVTVGG
notes: also called B02
B6: 抗SARS-CoV-2 RBD VHH抗体 A02 (VHH, not shown: small tags and cut ends)
VHH: QVQLVESGGALVQPGGSLRLSCAASGFPVNRNTMHWFRQAPGKEREGVAGISSRGDWTYYEDSVKGRFTISRDDARNTVYLQMNSLKPEDTAVYYCAAYLWLLGGVYWGQGTQVTVGG
notes: also called A02
B7: 抗SARS-CoV-2 RBD VHH抗体 A03 (VHH, not shown: small tags and cut ends)
VHH: QVQLVESGGALVQPGGSLRLSCAASGFPVNHNAMHWFRQAPGKERESVAGISHVVYRTYYEDSVKGRFTISRDDARNTVYLQMNSLKPEDTAVYYCAAVALTDLRLYWGQGTQVTVGG
notes: also called A03

target: T1, SARS-CoV-2 RBDタンパク質(Recombinant SARS-CoV-2, S1 Subunit Protein (RBD)、RayBiotech Life, Inc.) (SARS-CoV-2, UniProt P0DTC2 319-541); assay: ELISA on coated RBD, legend of Figure 2, n=4

Question: Does B1 bind?
Answer: binds

Question: Does B2 bind?
Answer: binds

Question: Does B3 bind?
Answer: binds

Question: Does B4 bind?
Answer: binds

Question: Does B5 bind?
Answer: binds

target: T1, SARS-CoV-2 RBDタンパク質(Recombinant …; assay: ELISA, RBD coated 50 ng/well, VHH 50 ng/well, anti-FLAG detection, A450, n=4

Question: Does B6 bind?
Answer: binds

Question: Does B7 bind?
Answer: binds
